Data: article PMC10362054, “p53 restoration in small cell lung cancer identifies a latent cyclophilin-dependent necrosis mechanism” (Nature Communications, 2023)

Molecular target: T1, Cyclophilin A (endogenous) (mouse (endogenous in mouse SCLC …, UniProt P17742 1-164))
T1 construct: cyclophilin A, encoded by Ppia, endogenous in cell lines derived from mouse SCLC tumors; also called CypA; PPIA; source: endogenous, mouse SCLC Type D (4711-18) and Type V (4716-10) cells, fixed cells
Experiment: proximity ligation; Duolink PLA on fixed Type D (4711-18) and Type V (4716-10) mouse SCLC cells treated with 4-OHT for 48 h; endogenous proteins; antibodies to p53 and to cyclophilin A, D or E
Details: partners not purified

T1 sequence (P17742 whole entry): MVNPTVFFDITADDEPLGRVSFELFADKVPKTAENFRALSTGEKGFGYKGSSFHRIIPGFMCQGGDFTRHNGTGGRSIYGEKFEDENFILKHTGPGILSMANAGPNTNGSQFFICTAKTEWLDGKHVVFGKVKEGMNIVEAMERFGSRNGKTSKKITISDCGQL

B1: p53 (endogenous, restored Trp53 allele) (natural protein, UniProt P02340 1-390, looked up)
chain: MTAMEESQSDISLELPLSQETFSGLWKLLPPEDILPSPHCMDDLLLPQDVEEFFEGPSEALRVSGAPAAQDPVTETPGPVAPAPATPWPLSSFVPSQKTYQGNYGFHLGFLQSGTAKSVMCTYSPPLNKLFCQLAKTCPVQLWVSATPPAGSRVRAMAIYKKSQHMTEVVRRCPHHERCSDGDGLAPPQHLIRVEGNLYPEYLEDRQTFRHSVVVPYEPPEAGSEYTTIHYKYMCNSSCMGGMNRRPILTIITLEDSSGNLLGRDSFEVRVCACPGRDRRTEEENFRKKEVLCPELPPGSAKRALPTCTSASPPQKKKPLDGEYFTLKIRGRKRFEMFRELNEALELKDAHATEESGDSRAHSSYLKTKKGQSTSRHKKTMVKKVGPDSD
notes: p53 expressed from the restored endogenous Trp53 allele (p53 R state) in cell lines derived from mouse SCLC tumors; source: endogenous, mouse SCLC Type D (4711-18) and Type V (4716-10) cells after 4-OHT, fixed cells
fold less PLA interaction in Type V cells than in Type D cells: ~10 fold
